The record followed here is patent publication US20110159513A1.

Read-outs that look alike come from different tables or passages of the source.

What all share (experiment): cell-based or functional assay
For test [1], the target named is ErbB1 on NCI-ADRr cells (UniProt P00533).
For test [2] the target is unchanged. This is another data set of the same source.
Test [3] deals with ErbB3 on tumour cells (NCI-ADRr, OVCAR8, OVCAR8-HER2) (UniProt P21860).

“transforming growth factor alpha (from UniProt P01135 40-89) (ligand)”: the pErbB1 EC50 [nM], NCI-ADRr in test [1] turned out to be 30 nM. As for “betacellulin (from UniProt P35070 32-111) (ligand)”, the pErbB1 EC50 [nM], NCI-ADRr in test [1] was 5.7 nM. In test [1], “heparin-binding epidermal growth factor (from UniProt Q99075 63-148) (ligand)” returned a pErbB1 % stimulation at 5 min relative to maximum of 87% and a pErbB1 EC50 [nM], NCI-ADRr of 21 nM.

B1: amphiregulin (ligand, UniProt P15514 101-198, looked up)
chain: SVRVEQVVKPPQNKTESENTSDKPKRKKKGGKNGKNRRNRKKKNPCNAEFQNFCIHGECKYIEHLEAVTCKCQQEYFGERCGEKSMKTHSMIDSSLSK
B1: in test [2], the pErbB1 % stimulation at 5 min relative to maximum is 95% and the pErbB1 EC50 [nM], NCI-ADRr amounted to 37 nM.

B2: heregulin HRG1-β (ligand, UniProt Q02297-6 177-241, looked up)
chain: SHLVKCAEKEKTFCVNGGECFMVKDLSNPSRYLCKCPNEFTGDRCQNYVMASFYKHLGIEFMEAE
In test [3], B2 gave a pErbB3 % stimulation at 5 min relative to maximum of 100% and a pErbB3 EC50 [nM], NCI-ADRr of 9.9 nM.

B3: Epigen (ligand, UniProt Q6UW88 23-104, looked up)
chain: AAVTVTPPITAQQGNWTVNKTEADNIEGPIALKFSHLCLEDHNSYCINGACAFHHELEKAICRCFTGYTGERCEHLTLTSYA
For the molecule B3, the pErbB1 % stimulation at 5 min relative to maximum in test [2] turned out to be 12%.
